Reference: doi:10.1101/2021.01.13.426575 (bioRxiv, 2021)
Substitutions are numbered along the chain they refer to. Names may count otherwise. Where two headings read alike, the source gives them in different places.

B1: DPP9, short isoform (DPP9S), co-expressed with CARD8 for cryo-EM (enzyme, human)
chain: MATTGTPTADRGDAAATDDPAARFQVQKHSWDGLRSIIHGSRKYSGLIVNKAPHDFQFVQKTDESGPHSHRLYYLGMPYGSRENSLLYSEIPKKVRKEALLLLSWKQMLDHFQATPHHGVYSREEELLRERKRLGVFGITSYDFHSESGLFLFQASNSLFHCRDGGKNGFMVSPMKPLEIKTQCSGPRMDPKICPADPAFFSFINNSDLWVANIETGEERRLTFCHQGLSNVLDDPKSAGVATFVIQEEFDRFTGYWWCPTASWEGSEGLKTLRILYEEVDESEVEVIHVPSPALEERKTDSYRYPRTGSKNPKIALKLAEFQTDSQGKIVSTQEKELVQPFSSLFPKVEYIARAGWTRDGKYAWAMFLDRPQQWLQLVLLPPALFIPSTENEEQRLASARAVPRNVQPYVVYEEVTNVWINVHDIFYPFPQSEGEDELCFLRANECKTGFCHLYKVTAVLKSQGYDWSEPFSPGEDEFKCPIKEEIALTSGEWEVLARHGSKIWVNEETKLVYFQGTKDTPLEHHLYVVSYEAAGEIVRLTTPGFSHSCSMSQNFDMFVSHYSSVSTPPCVHVYKLSGPDDDPLHKQPRFWASMMEAASCPPDYVPPEIFHFHTRSDVRLYGMIYKPHALQPGKKHPTVLFVYGGPQVQLVNNSFKGIKYLRLNTLASLGYAVVVIDGRGSCQRGLRFEGALKNQMGQVEIEDQVEGLQFVAEKYGFIDLSRVAIHGWSYGGFLSLMGLIHKPQVFKVAIAGAPVTVWMAYDTGYTERYMDVPENNQHGYEAGSVALHVEKLPNEPNRLLILHGFLDENVHFFHTNFLVSQLIRAGKPYQLQIYPNERHSIRCPESGEHYEVTLLHFLQEYL
B2: Full-length CARD8 (T60 isoform), wild type, co-expressed with DPP9S for cryo-EM (natural protein, human, UniProt Q9Y2G2-5 1-537, looked up)
chain: MEKKECPEKSSSSEEELPRRDSGSSRNIDASKLIRLQGSRKLLVDNSIRELQYTKTGIFFQAEACVTNDTVYRELPCVSETLCDISHFFQEDDETEAEPLLFRAVPECQLSGGDIPSVSEEQESSEGQDSGDICSEENQIVSSYASKVCFEIEEDYKNRQFLGPEGNVDVELIDKSTNRYSVWFPTAGWYLWSATGLGFLVRDEVTVTIAFGSWSQHLALDLQHHEQWLVGGPLFDVTAEPEEAVAEIHLPHFISLQAGEVDVSWFLVAHFKNEGMVLEHPARVEPFYAVLESPSFSLMGILLRIASGTRLSIPITSNTLIYYHPHPEDIKFHLYLVPSDALLTKAIDDEEDRFHGVRLQTSPPMEPLNFGSSYIVSNSANLKVMPKELKLSYRSPGEIQHFSKFYAGQMKEPIQLEITEKRHGTLVWDTEVKPVDLQLVAASAPPPFSGAAFVKENHRQLQARMGDLKGVLDDLQDNEVLTENEKELVEQEKTRQSKNEALLSMVEKKGDLALDVLFRSISERDPYLVSYLRQQNL
B3: Full-length CARD8 S297A (autoproteolysis-deficient), co-expressed with DPP9S for cryo-EM (natural protein, human, UniProt Q9Y2G2-5 1-537, looked up)
chain: B2 chain with S297A
B4: CARD8-CT (N-terminally degraded CARD8, UPA-CARD) in the purified CARD8-DPP9 complex (domain or fragment, human, UniProt Q9Y2G2-5 297-537, looked up)
chain: SLMGILLRIASGTRLSIPITSNTLIYYHPHPEDIKFHLYLVPSDALLTKAIDDEEDRFHGVRLQTSPPMEPLNFGSSYIVSNSANLKVMPKELKLSYRSPGEIQHFSKFYAGQMKEPIQLEITEKRHGTLVWDTEVKPVDLQLVAASAPPPFSGAAFVKENHRQLQARMGDLKGVLDDLQDNEVLTENEKELVEQEKTRQSKNEALLSMVEKKGDLALDVLFRSISERDPYLVSYLRQQNL

Columns and labels:
Test in all cases: cryo-EM structure
[1] = target: B2
[2] = target: B1
[3] = target: B1; remark: listed apart in the source

Binder: B1
stoichiometry N [1]: 1

Binder: B2
binding result [2]: binds

Binder: B3
binding result [3]: binds

Binder: B4
binding result [1]: binds
